Laboratory results taken from article PMC4284786, “Refolded scFv Antibody Fragment against Myoglobin Shows Rapid Reaction Kinetics” (International Journal of Molecular Sciences, 2014).

B1: parent premature antibody Myo2-7Ds (whole IgG) (antibody, V domains shown)
VH: QIQLVQSGPELKKPGETVKISCKASGYTFTDYSIHWVRQAPEKGLKWMGWINTETGEPTYADDFTGRFAFSLETSASTAYLQITNLKNEDTATYFCARRFTTTTWFAYWGQGTLVTVSA
VL: DVLMTQTPLSLPVSLGDQASISCRSSQNIVHSSGNTYLEWYLQKPGQSPRFLIYKVSNRFSGVPDRFSGSGSGTDFTLKISRVEAEDLGVYYCFQGSHVPYTFGGGTKLEIK
notes: as the VH of m1; constant part of the heavy chain; as the VL of m1; constant part of the light chain; IgG; The variable regions were the template of the scFv m1; also called IgG2-7Ds; parental antibody
B2: refolded scFv-Myo2-7Ds (scFv, V domains shown)
VH: B1 VH
VL: B1 VL
notes: VH of the monoclonal antibody Myo2-7Ds; (GGGGS) x 3 linker between VH and VL; VL of the monoclonal antibody Myo2-7Ds; Plasmid pET28a-scFv-Myo2-7Ds6xH, no pelB leader; A TEV cleavage site stands between the N-terminal His6 tag and the scFv; no cleavage is reported; The abstract gives the order VH-VL, but both printed primers seem to encode ends of a light chain; also called 2-7ds …

Experiments:
equine myoglobin = molecular target: T1, equine myoglobin (Equus caballus, UniProt P68082); experiment: ELISA; proteins coated on a 96-well plate (human myoglobin 5 μg/mL in carbonate buffer pH 9.6, 4 °C, 16 h), blocked with BSA in PBST; scFv or premature antibody added for 1 h at 37 °C; scFv detected by anti-6x His tag antibody and HRP-conjugated secondary antibody; scFv 1.9 μg/mL, IgG2-7Ds 0.5 μg/mL in the comparison of proteins; settings: both partners purified
T1 construct: myoglobin, equine
T1 sequence (P68082 whole entry): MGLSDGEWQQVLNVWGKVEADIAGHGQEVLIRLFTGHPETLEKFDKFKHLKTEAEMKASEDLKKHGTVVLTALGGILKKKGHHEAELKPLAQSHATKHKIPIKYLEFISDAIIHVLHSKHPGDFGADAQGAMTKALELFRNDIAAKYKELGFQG

conalbumin = molecular target: T2, conalbumin (Gallus gallus (assumed), UniProt P02789); experiment: as above; settings: both partners purified
T2 construct: conalbumin (ovotransferrin)
T2 sequence (P02789 20-705): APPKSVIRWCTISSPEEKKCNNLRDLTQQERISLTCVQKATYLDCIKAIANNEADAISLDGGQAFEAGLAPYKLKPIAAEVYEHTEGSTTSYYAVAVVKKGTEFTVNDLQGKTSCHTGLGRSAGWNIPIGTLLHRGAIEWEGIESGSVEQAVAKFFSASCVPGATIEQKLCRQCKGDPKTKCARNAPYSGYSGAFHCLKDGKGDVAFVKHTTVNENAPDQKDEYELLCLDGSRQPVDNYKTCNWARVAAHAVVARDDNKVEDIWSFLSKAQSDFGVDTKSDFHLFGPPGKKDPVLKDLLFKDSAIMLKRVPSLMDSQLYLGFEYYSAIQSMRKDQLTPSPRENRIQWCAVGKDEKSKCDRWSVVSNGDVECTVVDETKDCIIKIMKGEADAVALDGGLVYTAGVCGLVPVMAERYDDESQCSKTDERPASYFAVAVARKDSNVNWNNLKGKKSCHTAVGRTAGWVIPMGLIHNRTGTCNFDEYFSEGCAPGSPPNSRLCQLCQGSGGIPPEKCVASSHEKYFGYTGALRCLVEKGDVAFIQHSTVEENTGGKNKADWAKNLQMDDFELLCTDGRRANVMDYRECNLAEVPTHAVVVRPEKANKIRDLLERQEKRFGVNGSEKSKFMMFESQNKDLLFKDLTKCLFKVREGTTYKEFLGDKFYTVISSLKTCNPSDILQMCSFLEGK

human myoglobin [1] = molecular target: T3, human myoglobin (human, UniProt P02144 1-154); experiment: BLI
T3 chain: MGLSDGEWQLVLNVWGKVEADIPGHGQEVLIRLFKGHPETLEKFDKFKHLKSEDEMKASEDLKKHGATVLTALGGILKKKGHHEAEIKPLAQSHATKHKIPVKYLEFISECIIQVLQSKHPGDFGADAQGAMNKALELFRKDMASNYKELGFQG

human myoglobin [2] = molecular target: T3, human myoglobin; experiment: BLI
[3] = molecular target: T4, myoglobin peptide, aa 144–154 (Homo sapiens, UniProt P02144); experiment: ELISA; synthetic peptides of human myoglobin and human cardiac troponin I; scFv 1.9 μg/mL, IgG2-7Ds 0.5 μg/mL; settings: both partners purified
T4 construct: also called C-terminal region of the myoglobin peptide; source: synthetic peptide
T4 chain: ASNYKELGFQG

human myoglobin [4] = molecular target: T5, human myoglobin (Homo sapiens, UniProt P02144); experiment: BLI; Octet Red; human myoglobin (5 μg/mL in PBS, pH 7.4) immobilised on APS sensor tip at 30 °C for 900 s, blocked with 0.5% casein in PBS; scFv in casein-PBS; BSA as negative control; settings: both partners purified
T5 construct: myoglobin, human; also called myoglobin antigen; human myoglobin antigen

Binder	binding result (equine myoglobin)	binding result (conalbumin)	Kd (human myoglobin [1])	koff (human myoglobin [2])	binding result [3]	Kd (human myoglobin [4])	koff (human myoglobin [4])	kon (human myoglobin [4])
B1	binds	no binding (tested: IgG2-7Ds 0.5 μg/mL)	2.89 nM	0.0104 s⁻¹				
B2	binds	no binding (tested: scFv 1.9 μg/mL)	61.1 nM		binds	10 nM	0.00629 s⁻¹	93200 M⁻¹ s⁻¹
